Here are results for nine substances from the supplement of paper PMC11246515.

± gives the standard deviation of the averaged measurements.

The nature of this data set: total protein half-life in vivo (active degradation + dilution); higher = more stable protein.
[1] abbreviates: E. coli NCM3722 delta-clpP delta-lon delta-hslV, growth: N-lim chemostat, doubling time 6 h.
Setting [2] is: E. coli NCM3722 delta-clpP, growth: N-lim chemostat, doubling time 6 h.
Setting [3] is: E. coli NCM3722 delta-hslV, growth: N-lim chemostat, doubling time 6 h.
The mark [4] stands for this setting: E. coli NCM3722 delta-lon, growth: N-lim chemostat, doubling time 6 h.
Setting [5] is: E. coli NCM3722 delta-smpB, growth: N-lim chemostat, doubling time 6 h.
Where [6] appears, read: wild type E. coli NCM3722, growth: C-lim chemostat, doubling time 3 h.
Setting [7] is: wild type E. coli NCM3722, growth: C-lim chemostat, doubling time 6 h.
The mark [8] stands for this setting: wild type E. coli NCM3722, growth: C-lim chemostat, doubling time 12 h.
The mark [9] stands for this setting: wild type E. coli NCM3722, growth: N-lim chemostat, doubling time 6 h.
Where [10] appears, read: wild type E. coli NCM3722, growth: N-lim chemostat, doubling time 12 h.
Where [11] appears, read: wild type E. coli NCM3722, growth: P-lim chemostat, doubling time 6 h.
The mark [12] stands for this setting: wild type E. coli NCM3722, growth: P-lim chemostat, doubling time 12 h.

P0AFC7, sequence (chain, as listed by the source): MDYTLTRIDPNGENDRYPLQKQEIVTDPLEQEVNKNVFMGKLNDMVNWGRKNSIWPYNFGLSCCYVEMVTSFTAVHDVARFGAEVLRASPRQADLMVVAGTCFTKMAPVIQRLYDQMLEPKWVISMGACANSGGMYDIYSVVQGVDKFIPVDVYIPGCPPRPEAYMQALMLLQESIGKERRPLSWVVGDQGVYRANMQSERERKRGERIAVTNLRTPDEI

For the substance “MEKTYNPQDIEQPLYEHWEKQGYFKPNGDESQESFCIMIPPPNVTGSLHMGHAFQQTIMDTMIRYQRMQGKNTLWQVGTDHAGIATQMVVERKIAAEEGKTRHDYGREAFIDKIWEWKAESGGTITRQMRRLGNSVDWERERFTMDEGLSNAVKEVFVRLYKEDLIYRGKRLVNWDPKLRTAISDLEVENRESKGSMWHIRYPLADGAKTADGKDYLVVATTRPETLLGDTGVAVNPEDPRYKDLIGKYVILPLVNRRIPIVGDEHADMEKGTGCVKITPAHDFNDYEVGKRHALPMINILTFDGDIRESAQVFDTKGNESDVYSSEIPAEFQKLERFAARKAVVAAVDALGLLEEIKPHDLTVPYGDRGGVVIEPMLTDQWYVRADVLAKPAVEAVENGDIQFVPKQYENMYFSWMRDIQDWCISRQLWWGHRIPAWYDEAGNVYVGRNEDEVRKENNLGADVVLRQDEDVLDTWFSSALWTFSTLGWPENTDALRQFHPTSVMVSGFDIIFFWIARMIMMTMHFIKDENGKPQVPFHTVYMTGLIRDDEGQKMSKSKGNVIDPLDMVDGISLPELLEKRTGNMMQPQLADKIRKRTEKQFPNGIEPHGTDALRFTLAALASTGRDINWDMKRLEGYRNFCNKLWNASRFVLMNTEGQDCGFNGGEMTLSLADRWILAEFNQTIKAYREALDSFRFDIAAGILYEFTWNQFCDWYLELTKPVMNGGTEAELRGTRHTLVTVLEGLLRLAHPIIPFITETIWQRVKVLCGITADTIMLQPFPQYDASQVDEAALADTEWLKQAIVAVRNIRAEMNIAPGKPLELLLRGCSADAERRVNENRGFLQTLARLESITVLPADDKGPVSVTKIIDGAELLIPMAGLINKEDELARLAKEVAKIEGEISRIENKLANEGFVARAPEAVIAKEREKLEGYAEAKAKLIEQQAVIAAL”, the “total protein half-life in vivo” value is 5.35 ± 0.76 h under setting [1]; 5.48 ± 1.1 h under setting [2]; 4.68 ± 0.11 h under setting [3]; 5.17 ± 0.062 h under setting [4]; 4.417 ± 0.013 h under setting [5]; 3 ± 0.27 h under setting [6]. Besides, the “total protein half-life in vivo” value is 5.796 ± 0.013 h under setting [7]; 10.5 ± 0.32 h under setting [8]; 4.721 ± 0.046 h under setting [9]; 7.86 ± 0.2 h under setting [10]; 5.92 ± 0.23 h under setting [11]; 10.7 ± 0.61 h under setting [12].

As to “MSTPDFSTAENNQELANEVSCLKAMLTLMLQAMGQADAGRVMLKMEKQLALIEDETQAAVFSKTVKQIKQAYRQ [P0AD07]”, the “total protein half-life in vivo” value under setting [12] amounted to 7.56 ± 2.9 h.

In the case of “MDWLAKYWWILVIVFLVGVLLNVIKDLKRVDHKKFLANKPELPPHRDFNDKWDDDDDWPKKDQPKK [Q2EET2]”, the “total protein half-life in vivo” value is, setting by setting: under setting [1], 4.44 ± 0.075 h; under setting [2], 4.57 ± 1.7 h; under setting [4], 5.94 ± 1.8 h; under setting [5], 4.97 ± 0.94 h; under setting [6], 3.28 ± 0.98 h; under setting [7], 5.63 ± 0.88 h. In addition, the “total protein half-life in vivo” value was determined as 6.37 h under setting [8]; 5.06 h under setting [9]; 9.68 ± 5.2 h under setting [10]; 3.81 h under setting [11]; 7.42 ± 0.16 h under setting [12].

Consider “MQAIPMTLRGAEKLREELDFLKSVRRPEIIAAIAEAREHGDLKENAEYHAAREQQGFCEGRIKDIEAKLSNAQVIDVTKMPNNGRVIFGATVTVLNLDSDEEQTYRIVGDDEADFKQNLISVNSPIARGLIGKEEDDVVVIKTPGGEVEFEVIKVEYL [P0A6W5]”, for which the “total protein half-life in vivo” value runs as follows: under setting [1], 5.3 ± 0.11 h; under setting [2], 4.38 ± 0.77 h; under setting [3], 3.21 ± 0.12 h; under setting [4], 3.76 ± 0.18 h; under setting [5], 2.44 ± 0.26 h; under setting [6], 2.57 ± 0.24 h. Moreover, the “total protein half-life in vivo” value is, setting by setting: under setting [7], 4.48 ± 0.2 h; under setting [8], 6.41 ± 0.17 h; under setting [9], 3.27 ± 0.066 h; under setting [10], 4.46 ± 0.28 h; under setting [11], 3.75 ± 0.55 h; under setting [12], 6.8 ± 0.8 h.

As to “MKSLFKVTLLATTMAVALHAPITFAAEAAKPATAADSKAAFKNDDQKSAYALGASLGRYMENSLKEQEKLGIKLDKDQLIAGVQDAFADKSKLSDQEIEQTLQAFEARVKSSAQAKMEKDAADNEAKGKEYREKFAKEKGVKTSSTGLVYQVVEAGKGEAPKDSDTVVVNYKGTLIDGKEFDNSYTRGEPLSFRLDGVIPGWTEGLKNIKKGGKIKLVIPPELAYGKAGVPGIPPNSTLVFDVELLDVKPAPKADAKPEADAKAADSAKK”, the “total protein half-life in vivo” value runs as follows: under setting [1], 6.63 ± 0.44 h; under setting [2], 6.6 ± 0.35 h; under setting [3], 6.58 ± 0.14 h; under setting [4], 6.56 ± 0.067 h; under setting [5], 5.9 ± 0.28 h; under setting [6], 3.15 ± 0.053 h. In addition, the “total protein half-life in vivo” value runs as follows: under setting [7], 6.68 ± 0.15 h; under setting [8], 11.5 ± 0.64 h; under setting [9], 5.86 ± 0.3 h; under setting [10], 14 ± 2.2 h; under setting [11], 6.04 ± 0.87 h; under setting [12], 14.8 ± 1.6 h.

In the case of “MFEIHPVKKVSVVIPVYNEQESLPELIRRTTTACESLGKEYEILLIDDGSSDNSAHMLVEASQAENSHIVSILLNRNYGQHSAIMAGFSHVTGDLIITLDADLQNPPEEIPRLVAKADEGYDVVGTVRQNRQDSWFRKTASKMINRLIQRTTGKAMGDYGCMLRAYRRHIVDAMLHCHERSTFIPILANIFARRAIEIPVHHAEREFGESKYSFMRLINLMYDLVTCLTTTPLRMLSLLGSIIAIGGFSIAVLLVILRLTFGPQWAAEGVFMLFAVLFTFIGAQFIGMGLLGEYIGRIYTDVRARPRYFVQQVIRPSSKENE”, the “total protein half-life in vivo” value is, setting by setting: under setting [1], 5.758 ± 0.026 h; under setting [3], 6.356 ± 0.027 h; under setting [4], 6.156 ± 0.045 h; under setting [5], 6.14 ± 0.12 h; under setting [6], 2.84 ± 0.4 h; under setting [7], 6.77 ± 1.7 h. In addition, the “total protein half-life in vivo” value by setting is: under setting [8], 11.6 ± 0.56 h; under setting [9], 6.21 ± 0.57 h; under setting [10], 12.6 ± 0.58 h; under setting [11], 6.08 ± 0.52 h; under setting [12], 12.1 ± 0.46 h.

As to “MNIRPLHDRVIVKRKEVETKSAGGIVLTGSAAAKSTRGEVLAVGNGRILENGEVKPLDVKVGDIVIFNDGYGVKSEKIDNEEVLIMSESDILAIVEA [P0A6F9]”, the “total protein half-life in vivo” value under setting [1] came to 5.5416 ± 0.005 h; the “total protein half-life in vivo” value under setting [2] amounted to 5.34 ± 0.43 h; the “total protein half-life in vivo” value under setting [3] was 5.26 ± 0.4 h; the “total protein half-life in vivo” value under setting [4] came out at 6.18 ± 0.9 h; the “total protein half-life in vivo” value under setting [5] came to 5.092 ± 0.02 h; the “total protein half-life in vivo” value under setting [6] stood at 3.051 ± 0.0027 h. In addition, the “total protein half-life in vivo” value reads like this: under setting [7], 6.27 ± 0.87 h; under setting [8], 10.6 ± 1.3 h; under setting [9], 5.03 ± 0.15 h; under setting [10], 8.21 ± 0.97 h; under setting [11], 5.36 ± 0.23 h; under setting [12], 12.5 ± 1.7 h.

For P0AFC7, the “total protein half-life in vivo” value runs as follows: under setting [1], 6.19 ± 0.65 h; under setting [2], 5.993 ± 0.019 h; under setting [3], 6.34 ± 0.17 h; under setting [4], 5.81 ± 1.1 h; under setting [5], 5.87 ± 0.17 h; under setting [6], 2.92 ± 0.093 h. Besides, the “total protein half-life in vivo” value was 5.98 ± 0.26 h under setting [7]; 11.2 ± 1.5 h under setting [8]; 6.54 ± 0.77 h under setting [9]; 12.5 ± 0.86 h under setting [10]; 5.59 ± 0.15 h under setting [11]; 12.5 ± 0.61 h under setting [12].

“MKPNIHPEYRTVVFHDTSVDEYFKIGSTIKTDREIELDGVTYPYVTIDVSSKSHPFYTGKLRTVASEGNVARFTQRFGRFVSTKKGA [P0A7N1]”: the “total protein half-life in vivo” value reads like this: under setting [5], 2.8 h; under setting [6], 2.784 ± 0.022 h; under setting [7], 5.71 ± 0.51 h; under setting [8], 9.33 h; under setting [11], 6.22 h.
